# Entries after “also recorded” stand apart in the source; their conditions may differ.
# B1: ADAM10D+C: recombinant bovine Adam10 disintegrin and cysteine-rich domains (residues 455-646), Fc tag removed (protein)
# chain: SGQPICGNGMVEQGEECDCGYSDQCKDECCYDANQPEGKKCKLKPGKQCSPSQGPCCTAHCAFKSKTEKCRDDSDCAKEGICNGITALCPASDPKPNFTDCNRHTQVCINGQCAGSICEKHGLEECTCASSDGKDDKELCHVCCMKKMEPSTCASTGSVQWNKYFLGRTITLQPGSPCNDFRGYCDVFMRCR
# Assays:
# EphA3/ephrin-A5 complex = target: T1, EphA3/ephrin-A5 complex (Homo sapiens, UniProt P29320+P52803); assay: In vitro binding (Protein-A pull-down) assay
# T1 construct: incubated with Fc-tagged ectodomains of Eph-A3, EphB2, EphB4 and ephrin-A2, ephrin-A5, ephrin-B2 (R&D systems)
# T1 sequence (P29320 21-541 limits assumed): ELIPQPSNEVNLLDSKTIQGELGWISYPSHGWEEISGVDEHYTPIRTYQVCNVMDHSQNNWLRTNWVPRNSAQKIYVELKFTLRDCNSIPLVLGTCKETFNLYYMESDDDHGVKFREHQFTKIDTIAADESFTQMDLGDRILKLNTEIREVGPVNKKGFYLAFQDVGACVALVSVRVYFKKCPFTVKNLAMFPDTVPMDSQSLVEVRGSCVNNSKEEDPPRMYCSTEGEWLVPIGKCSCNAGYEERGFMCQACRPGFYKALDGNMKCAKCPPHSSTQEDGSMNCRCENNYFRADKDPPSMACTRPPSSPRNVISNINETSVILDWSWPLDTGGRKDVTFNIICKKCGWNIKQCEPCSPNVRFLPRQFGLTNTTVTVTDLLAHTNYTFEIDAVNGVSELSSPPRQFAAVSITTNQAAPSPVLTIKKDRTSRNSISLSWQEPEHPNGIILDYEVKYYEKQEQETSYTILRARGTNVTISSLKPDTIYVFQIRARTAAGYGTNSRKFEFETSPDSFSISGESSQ
# T1 sequence (P52803 21-203 limits assumed): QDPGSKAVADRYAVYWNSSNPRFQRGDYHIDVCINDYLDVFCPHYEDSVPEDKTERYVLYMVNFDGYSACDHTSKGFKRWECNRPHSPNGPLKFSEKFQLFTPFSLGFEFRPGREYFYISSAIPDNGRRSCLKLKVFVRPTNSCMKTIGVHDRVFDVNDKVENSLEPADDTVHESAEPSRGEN
# Protocol: (§1) Pull-down experiments were done as follows: ADAM10D+C, ADAM17D+C w.t. or the alanine mutants (˜15 μg) were incubated with Fc-tagged ectodomains of Eph-A3, EphB2, EphB4 and ephrin-A2, ephrin-A5, ephrin-B2 (R&D systems) at 4° C. for 30 min in 500 μL of binding buffer containing 10 mM HEPES (pH 7.4), 150 mM NaCl and 0.05% of Triton X-100. To test binding to the preformed EphA3/ephrin-A5 complex, 5 μg of the untagged ephrin-A5 was incubated with Fc tagged EphA3 for 30 min at 4° C. followed by the addition of ADAM10. The proteins were incubated for an additional 30 min., when Protein-A-Sepharose (Amersham) beads were added to the reaction mixture and shaken at 4° C. for 2h. The beads were then harvested by centrifugation, washed once with 500 μl of binding buffer and the bound proteins were separated on a 10-20% gradient polyacrylamide gel. The binding of the individual ADAM domains was carried out likewise using 15 μg of the disintegrin and 8 μg of the cysteine-rich domain.
# EphB4/ephrin-B2 complex = target: T2, EphB4/ephrin-B2 complex (Homo sapiens, UniProt P52799+P54760); assay: In vitro binding (Protein-A pull-down) assay; conditions: Protein-A capture
# T2 construct: incubated with Fc-tagged ectodomains of Eph-A3, EphB2, EphB4 and ephrin-A2, ephrin-A5, ephrin-B2 (R&D systems); purchased R&D systems
# Protocol: as §1
# ectodomain of EphA3 = target: T3, ectodomain of EphA3 (Homo sapiens, UniProt P29320); assay: In vitro binding (Protein-A pull-down) assay; conditions: EphA3-Fc alone, without ephrin
# T3 construct: incubated with Fc-tagged ectodomains of Eph-A3, EphB2, EphB4 and ephrin-A2, ephrin-A5, ephrin-B2 (R&D systems); purchased R&D systems
# T3 sequence (P29320 21-541 limits assumed): T1 sequence (P29320 21-541 limits assumed)
# Protocol: as §1
# ephrin-A2 = target: T4, ephrin-A2 (Homo sapiens, UniProt O43921); assay: In vitro binding (Protein-A pull-down) assay; conditions: ephrin-Fc captured on Protein A Sepharose
# T4 construct: incubated with Fc-tagged ectodomains of Eph-A3, EphB2, EphB4 and ephrin-A2, ephrin-A5, ephrin-B2 (R&D systems); purchased R&D systems
# T4 sequence (O43921 25-188 limits assumed): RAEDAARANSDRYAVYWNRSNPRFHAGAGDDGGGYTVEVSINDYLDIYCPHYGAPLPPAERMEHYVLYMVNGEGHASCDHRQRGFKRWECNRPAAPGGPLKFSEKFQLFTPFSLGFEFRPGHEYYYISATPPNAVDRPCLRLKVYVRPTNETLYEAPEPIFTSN
# Protocol: as §1
# ephrin-A1 = target: T5, ephrin-A1 (Homo sapiens, UniProt P20827); assay: In vitro binding (Protein-A pull-down) assay; conditions: ephrin-Fc captured on Protein A Sepharose
# T5 sequence (P20827 19-182 limits assumed): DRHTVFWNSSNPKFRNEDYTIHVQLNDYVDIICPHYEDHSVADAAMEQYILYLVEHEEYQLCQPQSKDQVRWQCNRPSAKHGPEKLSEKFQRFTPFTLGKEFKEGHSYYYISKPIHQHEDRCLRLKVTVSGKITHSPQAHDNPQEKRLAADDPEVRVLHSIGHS
# [1] = target: T6, EphA3/ephrin-A5 Fc complex (Homo sapiens, UniProt P29320+P52803); assay: HTRF / FRET assay of EphA3/ephrin-A5/ADAM10D+C complex formation; type: binding; conditions: unlabelled protein at increasing concentrations, 320 nM complex
# T6 construct: Fc fusion proteins of the ephrin-A5 and EphA3 extracellular domains fused to the hinge and Fc region of human IgG1 were produced as described
# T6 sequence (P29320 21-541 limits assumed): T1 sequence (P29320 21-541 limits assumed)
# T6 sequence (P52803 21-203 limits assumed): T1 sequence (P52803 21-203 limits assumed)
# Protocol: FIG. 6. Fluorescence Energy Transfer (RET) analysis monitoring the formation of EphA3/ephrin-A5/ADAM10D+C complexes. • A) The proposed screening approach for inhibitors of the complex formation is based on a Homogeneous Time Resolved Fluorescence (HTRF™) Assay using a Eu^3+ chelate labeled donor and a XL665 labeled acceptor protein. Interactions between ADAM10 and its substrate, the EphA3/ephrinA5 complex are measured using (normalized) emission at 665 nm: the interaction brings the labels into proximity and triggers fluorescence resonance energy transfer (FRET), which initiates a chemical reaction cascade to produce an amplified fluorescent signal. […]
# In this regard, screening or identification of inhibitors of complex formation is based on high-throughput homogeneous time resolved fluorescence (HTRF™) technology utilising donor and acceptor fluorescence labels that are conjugated to Fc-tagged proteins. An interaction between proteins brings the labels into proximity and triggers fluorescence resonance energy transfer (FRET), which initiates a chemical reaction cascade to produce an amplified fluorescent signal. […]
# The proposed drug screening approach is based on homogeneous time resolved fluorescence HTRF™ technology utilising donor and acceptor fluorescence labels that are conjugated to Fc-tagged proteins. […]
# T2 sequence (P52799 28-229 limits assumed): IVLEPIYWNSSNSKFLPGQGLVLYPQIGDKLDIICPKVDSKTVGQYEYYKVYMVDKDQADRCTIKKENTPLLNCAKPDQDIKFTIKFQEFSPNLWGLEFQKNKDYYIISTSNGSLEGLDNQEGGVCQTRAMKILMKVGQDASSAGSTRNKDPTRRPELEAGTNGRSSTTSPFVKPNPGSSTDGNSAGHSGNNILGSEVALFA
# T2 sequence (P54760 16-539 limits assumed): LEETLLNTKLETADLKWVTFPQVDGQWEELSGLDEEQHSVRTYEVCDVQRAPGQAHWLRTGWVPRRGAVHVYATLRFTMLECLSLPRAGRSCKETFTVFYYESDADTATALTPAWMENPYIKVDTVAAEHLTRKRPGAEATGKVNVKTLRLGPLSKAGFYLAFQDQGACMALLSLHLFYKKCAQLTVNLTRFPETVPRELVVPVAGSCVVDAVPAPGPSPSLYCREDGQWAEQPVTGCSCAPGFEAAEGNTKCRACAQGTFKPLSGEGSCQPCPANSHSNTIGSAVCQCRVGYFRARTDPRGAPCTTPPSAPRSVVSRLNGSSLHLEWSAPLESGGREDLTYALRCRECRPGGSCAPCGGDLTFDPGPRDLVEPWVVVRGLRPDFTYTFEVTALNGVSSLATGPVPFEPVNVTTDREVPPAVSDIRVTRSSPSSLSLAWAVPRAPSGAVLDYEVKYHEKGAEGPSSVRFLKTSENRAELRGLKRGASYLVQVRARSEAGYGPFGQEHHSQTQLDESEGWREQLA
molecule,measurement,setting,value
B1,binding to EphA3/ephrin-A5 complex,EphA3/ephrin-A5 complex; EphA3-Fc plus untagged ephrin-A5,readily bound and formed a stable complex; also recorded: binds
same,amount of EphA3-bound (complexed) ephrin-A5,"EphA3/ephrin-A5 complex; single-chain ephrin-A5 lacking Fc, captured via EphA3-Fc",notably increased
same,binding to EphB4/ephrin-B2 complex,EphB4/ephrin-B2 complex,little or no association; also recorded: does not bind
same,binding to EphA3 ectodomain,ectodomain of EphA3,no interaction was seen
same,binding to ephrin-A2,ephrin-A2,bound
same,binding to ephrin-A1,ephrin-A1,bound
same,inhibition of the labelled ADAM10D+C - EphA3/ephrin-A5 interaction (A665/A620),[1],competitive inhibitor

# Source: US7960513B2, “Antibody against a human ADAM protease” (Monash University, priority 2004, dated 2011)
